Assay results taken from publication PMC11040377, “Lymphocyte‐Activation Gene 3 Facilitates Pathological Tau Neuron‐to‐Neuron Transmission” (Advanced Science, 2024).

B1: human recombinant LAG3 (receptor)
chain: LQPGAEVPVVWAQEGAPAQLPCSPTIPLQDLSLLRRAGVTWQHQPDSGPPAAAPGHPLAPGPHPAAPSSWGPRPRRYTVLSVGPGGLRSGRLPLQPRVQLDERGRQRGDFSLWLRPARRADAGEYRAAVHLRDRALSCRLRLRLGQASMTASPPGSLRASDWVILNCSFSRPDRPASVHWFRNRGQGRVPVRESPHHHLAESFLFLPQVSPMDSGPWGCILTYRDGFNVSIMYNLTVLGLEPPTPLTVYAGAGSRVGLPCRLPAGVGTRSFLTAKWTPPGGGPDLLVTGDNGDFTLRLEDVSQAQAGTYTCHIHLQEQQLNATVTLAIITVTPKSFGSPGSLGKLLCEVTPVSGQERFVWSSLDTPSQRSFSGPWLEAQEAQLLSQPWQCQLYQGERLLGAAVYFTELSSPGAQRSGRAPGALPAGHL
B2: Lag3 (lymphocyte-activation gene 3), on transfected SH-SY5Y cells (receptor, UniProt Q61790 24-521, looked up)
chain: GPGKELPVVWAQEGAPVHLPCSLKSPNLDPNFLRRGGVIWQHQPDSGQPTPIPALDLHQGMPSPRQPAPGRYTVLSVAPGGLRSGRQPLHPHVQLEERGLQRGDFSLWLRPALRTDAGEYHATVRLPNRALSCSLRLRVGQASMIASPSGVLKLSDWVLLNCSFSRPDRPVSVHWFQGQNRVPVYNSPRHFLAETFLLLPQVSPLDSGTWGCVLTYRDGFNVSITYNLKVLGLEPVAPLTVYAAEGSRVELPCHLPPGVGTPSLLIAKWTPPGGGPELPVAGKSGNFTLHLEAVGLAQAGTYTCSIHLQGQQLNATVTLAVITVTPKSFGLPGSRGKLLCEVTPASGKERFVWRPLNNLSRSCPGPVLEIQEARLLAERWQCQLYEGQRLLGATVYAAESSSGAHSARRISGDLKGGHLVLVLILGALSLFLLVAGAFGFHWWRKQLLLRRFSALEHGIQPFPAQRKIEELERELETEMGQEPEPEPEPQLEPEPRQL
notes: also called FL; Lag3-expressing SH-SY5Y cells; source: SH-SY5Y cells, transiently transfected (Lipofectamine 2000), on cells

Tests used:
[1] = biological target: T1, Tau-biotin PFF (AD-Tau-induced Tau preformed fibrils, biotin-labelled) (human, UniProt P10636-8 1-441, biotin (Sulfo-NHS-LC-Biotin)); assay: ELISA; Tau-biotin PFF and human recombinant LAG3; format not described in the text shown; settings: both partners purified
T1 construct: Tau, human, WT isoform T40 (2N4R), 441 amino acid residues; Fibrillar assembly of many Tau chains; concentrations are monomer equivalents; also called Tau PFF; AD-Tau-induced Tau PFF-biotin; source: E. coli BL21(DE3), purified (HiTrap SP HP); fibrillised with AD-Tau seeds from AD brains, sonicated
T1 sequence (P10636 other isoform, or with tags, fused parts or gaps): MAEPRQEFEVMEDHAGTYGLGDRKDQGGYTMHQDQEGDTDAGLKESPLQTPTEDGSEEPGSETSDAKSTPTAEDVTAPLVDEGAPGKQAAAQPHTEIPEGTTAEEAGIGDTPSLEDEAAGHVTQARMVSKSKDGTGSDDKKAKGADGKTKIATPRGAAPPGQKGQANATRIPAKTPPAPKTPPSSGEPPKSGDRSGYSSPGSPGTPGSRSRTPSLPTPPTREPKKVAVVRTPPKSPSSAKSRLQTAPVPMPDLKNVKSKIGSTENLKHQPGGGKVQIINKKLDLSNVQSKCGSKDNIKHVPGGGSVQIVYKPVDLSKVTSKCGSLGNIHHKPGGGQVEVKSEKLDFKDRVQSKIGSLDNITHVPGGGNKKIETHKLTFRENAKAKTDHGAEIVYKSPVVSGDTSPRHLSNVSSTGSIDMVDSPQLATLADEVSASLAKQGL

amyloid-β (Aβ) PFF = assay: cell surface binding assay (streptavidin-alkaline phosphatase staining); SH-SY5Y cells transfected with Lag3 or its deletion mutants; biotin-labelled ligand at different concentrations (monomer equivalent) in DMEM with 10% FBS, 2 h at RT; washed, fixed, bound biotin detected with streptavidin-AP and BCIP/NBT; intensity by ImageJ, KD by GraphPad Prism; settings: one partner purified
[2] = biological target: Tau oligomers (globular, 30% sucrose fraction), biotin-labelled (human, biotin); assay: as above; settings: one partner purified

Binder | Kd [1] | Kd (amyloid-β (Aβ) PFF) | Kd [2]
B1 | 3 nM |  | 
B2 |  | 310 nM | 1300 nM
